Assay results published in publication PMC8801479.
Values belong to the substance of their own block, whether it stands above or below them.

Key:
the GF and c-AMH = assay: ELISA; c-AMH or GF captured on mAb-C1; various concentrations of AMHR2-Fc/Fc in solution; bound AMHR2-Fc/Fc detected with antihuman-Fc Ab conjugated to HRP; quadratic fit
[1] = molecular target: activin A growth factor growth factor domain (Homo sapiens) (UniProt P08476); conditions: cited from earlier work
[2] = molecular target: anti-Müllerian hormone growth factor (AMH GF), the mature C-terminal domain (human) (UniProt P03971); assay: ELISA; c-AMH diluted to 1 ng/ml (8.8 pM) in PBS with 1% BSA and 1% goat serum, 10 days at room temperature; ELISA that detects only intact complex; Kd calculated from the fraction of intact complex
Chain of anti-Müllerian hormone growth factor (AMH GF), the mature C-terminal domain (human) (P03971 452-560): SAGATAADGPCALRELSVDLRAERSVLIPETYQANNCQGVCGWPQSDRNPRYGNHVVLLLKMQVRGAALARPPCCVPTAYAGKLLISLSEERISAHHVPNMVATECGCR

[3] = molecular target: anti-Müllerian hormone growth factor (AMH GF), the mature C-terminal domain (human) (UniProt P03971); assay: ELISA; AMHR2-Fc/Fc captured on goat antihuman Fc Ab on the plate; c-AMH 0.03 to 52.83 nM; bound AMH detected with nonbiotinylated mAb-C1 or mAb-N1 and antimouse-Fc-HRP, added one by one or as a preformed complex; data fit globally to the equations of Perelson and DeLisi for ligand-induced receptor dimerization, with the quadratic equation for K_mono and Kbi; [R0] = 0.1 nM
[4] = molecular target: AMHR2-Fc/Fc, heterodimer of one AMHR2-Fc chain (extracellular domain of human AMHR2 fused to human IgG1 Fc) disulfide bonded to one Fc-only chain (human) (UniProt Q16671); assay: ELISA; AMHR2-Fc/Fc (0.75 ug/ml) captured on goat antihuman Fc Ab coated on the plate; c-AMH or GF serially diluted, 2 to 4 h; bound AMH detected with biotinylated mAb-C1 (GF) or mAb-N1 (prodomain) and SA-HRP; data fit to the quadratic equation for a reversible association reaction
[5] = molecular target: AMHR2-Fc/Fc, heterodimer of one AMHR2-Fc chain (extracellular domain of human AMHR2 fused to human IgG1 Fc) disulfide bonded to one Fc-only chain (human) (UniProt Q16671); assay: ELISA; AMHR2-Fc/Fc captured on goat antihuman Fc Ab on the plate; c-AMH 0.03 to 52.83 nM; bound AMH detected with nonbiotinylated mAb-C1 or mAb-N1 and antimouse-Fc-HRP, added one by one or as a preformed complex; data fit globally to the equations of Perelson and DeLisi for ligand-induced receptor dimerization, with the quadratic equation for K_mono and Kbi; [R0] = 0.1 nM

Chain of cleaved anti-Müllerian hormone (c-AMH), the noncovalent complex of the AMH prodomain with the AMH growth factor (P03971 25-451 limits assumed): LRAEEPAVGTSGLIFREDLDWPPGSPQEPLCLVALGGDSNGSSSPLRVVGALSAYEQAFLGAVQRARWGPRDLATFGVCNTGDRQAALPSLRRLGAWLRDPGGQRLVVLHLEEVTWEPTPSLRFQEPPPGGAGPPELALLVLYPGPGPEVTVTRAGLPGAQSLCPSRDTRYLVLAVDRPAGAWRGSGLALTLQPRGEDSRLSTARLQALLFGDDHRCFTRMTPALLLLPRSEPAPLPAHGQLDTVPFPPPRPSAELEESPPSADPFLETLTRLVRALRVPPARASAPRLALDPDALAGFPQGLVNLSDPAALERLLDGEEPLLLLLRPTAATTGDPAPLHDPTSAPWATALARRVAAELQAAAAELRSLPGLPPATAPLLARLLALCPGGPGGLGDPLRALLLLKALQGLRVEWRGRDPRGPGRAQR
Chain of cleaved anti-Müllerian hormone (c-AMH), the noncovalent complex of the AMH prodomain with the AMH growth factor (P03971 452-560 limits assumed): as the sequence (P03971 452-560) above
Chain of activin A prodomain prodomain (P08476 21-310): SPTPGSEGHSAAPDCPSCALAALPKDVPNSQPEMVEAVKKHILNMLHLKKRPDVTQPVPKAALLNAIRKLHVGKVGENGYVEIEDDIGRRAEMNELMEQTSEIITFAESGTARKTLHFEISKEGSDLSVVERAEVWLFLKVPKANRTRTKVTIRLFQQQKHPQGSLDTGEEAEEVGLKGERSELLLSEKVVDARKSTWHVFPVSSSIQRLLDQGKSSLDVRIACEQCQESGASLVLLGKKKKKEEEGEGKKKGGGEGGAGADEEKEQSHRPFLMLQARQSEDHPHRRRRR
Chain of activin A growth factor growth factor domain (Homo sapiens) (P08476 311-426): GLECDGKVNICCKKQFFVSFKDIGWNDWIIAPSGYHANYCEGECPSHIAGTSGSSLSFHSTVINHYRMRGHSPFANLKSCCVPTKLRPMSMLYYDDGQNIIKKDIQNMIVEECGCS

Kd (the GF and c-AMH): 3 to 4 nM
Substance: AMHR2-Fc/Fc, heterodimer of one AMHR2-Fc chain (extracellular domain of human AMHR2 fused to human IgG1 Fc) disulfide bonded to one Fc-only chain (from UniProt Q16671 18-149; P01857 104-330) (Fc fusion)

Substance: activin A prodomain prodomain (from UniProt P08476)
Kd [1]: 5 nM

Kd [2]: 0.4 pM
intact complex left after 10 days at 8.8 pM, percent of samples diluted immediately before the assay [2]: 80%
KT (apparent dissociation constant of the receptor-bound AMH complex, at [R0] = 100 pM), at 0.03 nM c-AMH [3]: 7.5 pM
KT (apparent dissociation constant of the receptor-bound AMH complex, at [R0] = 100 pM), at 0.05 nM c-AMH [3]: 22.1 pM
KT (apparent dissociation constant of the receptor-bound AMH complex, at [R0] = 100 pM), at 0.10 nM c-AMH [3]: 24.3 pM
KT (apparent dissociation constant of the receptor-bound AMH complex, at [R0] = 100 pM), at 0.21 nM c-AMH [3]: 36.6 pM
KT (apparent dissociation constant of the receptor-bound AMH complex, at [R0] = 100 pM), at 0.41 nM c-AMH [3]: 38.7 pM
KT (apparent dissociation constant of the receptor-bound AMH complex, at [R0] = 100 pM), at 0.83 nM c-AMH [3]: 45.3 pM
KT (apparent dissociation constant of the receptor-bound AMH complex, at [R0] = 100 pM), at 1.65 nM c-AMH [3]: 26.2 pM
KT (apparent dissociation constant of the receptor-bound AMH complex, at [R0] = 100 pM), at 3.30 nM c-AMH [3]: 10 pM
KT (apparent dissociation constant of the receptor-bound AMH complex, at [R0] = 100 pM), at 6.60 nM c-AMH [3]: 6.1 pM
KT (apparent dissociation constant of the receptor-bound AMH complex, at [R0] = 100 pM), at 13.21 nM c-AMH [3]: 2.7 pM
KT (apparent dissociation constant of the receptor-bound AMH complex, at [R0] = 100 pM), at 26.41 nM c-AMH; taken as a measure of K mono [3]: 1 pM
KT (apparent dissociation constant of the receptor-bound AMH complex, at [R0] = 100 pM), at 52.83 nM c-AMH; taken as a measure of K mono [3]: 0.8 pM
[NCT]/[RL + RLR], fraction-intact AMH complex, at 0.03 nM c-AMH [3]: 0.29
[NCT]/[RL + RLR], fraction-intact AMH complex, at 0.05 nM c-AMH [3]: 0.234
[NCT]/[RL + RLR], fraction-intact AMH complex, at 0.10 nM c-AMH [3]: 0.271
[NCT]/[RL + RLR], fraction-intact AMH complex, at 0.21 nM c-AMH [3]: 0.276
[NCT]/[RL + RLR], fraction-intact AMH complex, at 0.41 nM c-AMH [3]: 0.347
[NCT]/[RL + RLR], fraction-intact AMH complex, at 0.83 nM c-AMH [3]: 0.386
[NCT]/[RL + RLR], fraction-intact AMH complex, at 1.65 nM c-AMH [3]: 0.521
[NCT]/[RL + RLR], fraction-intact AMH complex, at 3.30 nM c-AMH [3]: 0.688
[NCT]/[RL + RLR], fraction-intact AMH complex, at 6.60 nM c-AMH [3]: 0.767
[NCT]/[RL + RLR], fraction-intact AMH complex, at 13.21 nM c-AMH [3]: 0.845
[NCT]/[RL + RLR], fraction-intact AMH complex, at 26.41 nM c-AMH [3]: 0.903
[NCT]/[RL + RLR], fraction-intact AMH complex, at 52.83 nM c-AMH [3]: 0.917
Substance: anti-Müllerian hormone prodomain (N-terminal prodomain of c-AMH) (domain or fragment)

Kd [4]: 0.3 nM
K1 (dissociation constant of the initial monovalent binding step; fit of Figure 5C) [5]: 1.1 nM
K1 (dissociation constant of the initial monovalent binding step; fit of Figure 5D) [5]: 1.1 nM
[CT]/[R0], bound AMH without prodomain, estimate of [RLR]/[R0], at 0.03 nM c-AMH [5]: 0.031
[CT]/[R0], bound AMH without prodomain, estimate of [RLR]/[R0], at 0.05 nM c-AMH [5]: 0.067
[CT]/[R0], bound AMH without prodomain, estimate of [RLR]/[R0], at 0.10 nM c-AMH [5]: 0.091
[CT]/[R0], bound AMH without prodomain, estimate of [RLR]/[R0], at 0.21 nM c-AMH [5]: 0.147
[CT]/[R0], bound AMH without prodomain, estimate of [RLR]/[R0], at 0.41 nM c-AMH [5]: 0.206
[CT]/[R0], bound AMH without prodomain, estimate of [RLR]/[R0], at 0.83 nM c-AMH [5]: 0.284
[CT]/[R0], bound AMH without prodomain, estimate of [RLR]/[R0], at 1.65 nM c-AMH [5]: 0.285
[CT]/[R0], bound AMH without prodomain, estimate of [RLR]/[R0], at 3.30 nM c-AMH [5]: 0.22
[CT]/[R0], bound AMH without prodomain, estimate of [RLR]/[R0], at 6.60 nM c-AMH [5]: 0.199
[CT]/[R0], bound AMH without prodomain, estimate of [RLR]/[R0], at 13.21 nM c-AMH [5]: 0.145
[CT]/[R0], bound AMH without prodomain, estimate of [RLR]/[R0], at 26.41 nM c-AMH [5]: 0.094
[CT]/[R0], bound AMH without prodomain, estimate of [RLR]/[R0], at 52.83 nM c-AMH [5]: 0.086
[NCT]/[R0], intact AMH complex bound (mAb-N1), estimate of [RL]/[R0], at 0.03 nM c-AMH [5]: 0.013
[NCT]/[R0], intact AMH complex bound (mAb-N1), estimate of [RL]/[R0], at 0.05 nM c-AMH [5]: 0.021
[NCT]/[R0], intact AMH complex bound (mAb-N1), estimate of [RL]/[R0], at 0.10 nM c-AMH [5]: 0.034
[NCT]/[R0], intact AMH complex bound (mAb-N1), estimate of [RL]/[R0], at 0.21 nM c-AMH [5]: 0.056
[NCT]/[R0], intact AMH complex bound (mAb-N1), estimate of [RL]/[R0], at 0.41 nM c-AMH [5]: 0.109
[NCT]/[R0], intact AMH complex bound (mAb-N1), estimate of [RL]/[R0], at 0.83 nM c-AMH [5]: 0.178
[NCT]/[R0], intact AMH complex bound (mAb-N1), estimate of [RL]/[R0], at 1.65 nM c-AMH [5]: 0.311
[NCT]/[R0], intact AMH complex bound (mAb-N1), estimate of [RL]/[R0], at 3.30 nM c-AMH [5]: 0.487
[NCT]/[R0], intact AMH complex bound (mAb-N1), estimate of [RL]/[R0], at 6.60 nM c-AMH [5]: 0.654
[NCT]/[R0], intact AMH complex bound (mAb-N1), estimate of [RL]/[R0], at 13.21 nM c-AMH [5]: 0.794
[NCT]/[R0], intact AMH complex bound (mAb-N1), estimate of [RL]/[R0], at 26.41 nM c-AMH [5]: 0.871
[NCT]/[R0], intact AMH complex bound (mAb-N1), estimate of [RL]/[R0], at 52.83 nM c-AMH [5]: 0.941
[R0]/K2 (second, bivalent binding step; dimensionless) [5]: 6
[R0]/K2 (second, bivalent binding step; dimensionless; fit of Figure 5C) [5]: 3.7
[R0]/K2 (second, bivalent binding step; dimensionless; fit of Figure 5D) [5]: 4.9
[RL+2RLR]/[R0], fraction-receptor occupancy, at 0.03 nM c-AMH [5]: 0.103
[RL+2RLR]/[R0], fraction-receptor occupancy, at 0.05 nM c-AMH [5]: 0.163
[RL+2RLR]/[R0], fraction-receptor occupancy, at 0.10 nM c-AMH [5]: 0.254
[RL+2RLR]/[R0], fraction-receptor occupancy, at 0.21 nM c-AMH [5]: 0.386
[RL+2RLR]/[R0], fraction-receptor occupancy, at 0.41 nM c-AMH [5]: 0.538
[RL+2RLR]/[R0], fraction-receptor occupancy, at 0.83 nM c-AMH [5]: 0.654
[RL+2RLR]/[R0], fraction-receptor occupancy, at 1.65 nM c-AMH [5]: 0.789
[RL+2RLR]/[R0], fraction-receptor occupancy, at 3.30 nM c-AMH [5]: 0.834
[RL+2RLR]/[R0], fraction-receptor occupancy, at 6.60 nM c-AMH [5]: 0.917
[RL+2RLR]/[R0], fraction-receptor occupancy, at 13.21 nM c-AMH [5]: 0.951
[RL+2RLR]/[R0], fraction-receptor occupancy, at 26.41 nM c-AMH [5]: 0.989
[RL+2RLR]/[R0], fraction-receptor occupancy, at 52.83 nM c-AMH [5]: 1
[RL+RLR]/[R0], fraction-maximal AMH binding, at 0.03 nM c-AMH [5]: 0.043
[RL+RLR]/[R0], fraction-maximal AMH binding, at 0.05 nM c-AMH [5]: 0.088
[RL+RLR]/[R0], fraction-maximal AMH binding, at 0.10 nM c-AMH [5]: 0.125
[RL+RLR]/[R0], fraction-maximal AMH binding, at 0.21 nM c-AMH [5]: 0.203
[RL+RLR]/[R0], fraction-maximal AMH binding, at 0.41 nM c-AMH [5]: 0.315
[RL+RLR]/[R0], fraction-maximal AMH binding, at 0.83 nM c-AMH [5]: 0.463
[RL+RLR]/[R0], fraction-maximal AMH binding, at 1.65 nM c-AMH [5]: 0.596
[RL+RLR]/[R0], fraction-maximal AMH binding, at 3.30 nM c-AMH [5]: 0.707
[RL+RLR]/[R0], fraction-maximal AMH binding, at 6.60 nM c-AMH [5]: 0.854
[RL+RLR]/[R0], fraction-maximal AMH binding, at 13.21 nM c-AMH [5]: 0.94
[RL+RLR]/[R0], fraction-maximal AMH binding, at 26.41 nM c-AMH [5]: 0.965
[RL+RLR]/[R0], fraction-maximal AMH binding, at 52.83 nM c-AMH [5]: 1.03
Substance: cleaved anti-Müllerian hormone (c-AMH), the noncovalent complex of the AMH prodomain with the AMH growth factor (from UniProt P03971 452-560)
